Publication PMC2629585, “Local Inflammation Induces Complement Crosstalk Which Amplifies the Antimicrobial Response” (PLoS Pathogens, 2009)

Biological target: T1, C1q (UniProt P02745 23-245; P02746 28-253; P02747 29-245)
T1 construct: complement C1q subcomponent subunit A; complement C1q subcomponent subunit B; complement C1q subcomponent subunit C; source: bought: Quidel (San Diego, CA); copies: + +
Test: ELISA; competition; 0.8 ug CRP immobilised; 0.8 ug C1q with increasing L-ficolin or 0.8 ug L-ficolin with increasing C1q; TBS, 0.05% Tween-20, 1% HSA, pH 7.4, 2.5 mM calcium
Conditions: both partners purified

T1 sequence (P02745 23-245, chain 1 of 3): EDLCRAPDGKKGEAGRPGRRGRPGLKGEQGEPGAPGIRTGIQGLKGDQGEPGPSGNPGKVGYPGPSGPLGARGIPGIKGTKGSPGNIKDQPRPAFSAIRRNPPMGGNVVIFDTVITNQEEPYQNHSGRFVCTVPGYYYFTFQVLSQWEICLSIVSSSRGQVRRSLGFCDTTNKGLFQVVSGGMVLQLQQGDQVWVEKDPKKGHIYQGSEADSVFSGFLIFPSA
T1 sequence (P02746 28-253, chain 2 of 3): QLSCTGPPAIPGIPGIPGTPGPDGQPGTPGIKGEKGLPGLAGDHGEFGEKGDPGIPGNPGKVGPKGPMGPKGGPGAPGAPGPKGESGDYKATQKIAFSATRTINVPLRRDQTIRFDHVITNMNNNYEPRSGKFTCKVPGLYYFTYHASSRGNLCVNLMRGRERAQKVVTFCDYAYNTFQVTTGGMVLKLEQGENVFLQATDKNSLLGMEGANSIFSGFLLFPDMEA
T1 sequence (P02747 29-245, chain 3 of 3): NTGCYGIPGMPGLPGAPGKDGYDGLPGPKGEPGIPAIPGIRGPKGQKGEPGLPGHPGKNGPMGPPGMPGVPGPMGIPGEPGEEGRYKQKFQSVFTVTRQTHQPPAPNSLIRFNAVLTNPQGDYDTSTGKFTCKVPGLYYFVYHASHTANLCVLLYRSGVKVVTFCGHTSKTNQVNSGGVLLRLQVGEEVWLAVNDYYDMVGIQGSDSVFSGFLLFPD

B1: C-reactive protein (CRP), human, purified (Sigma) (natural protein, UniProt P02741 19-224, looked up)
chain: QTDMSRKAFVFPKESDTSYVSLKAPLTKPLKAFTVCLHFYTELSSTRGYSIFSYATKRQDNEILIFWSKDIGYSFTVGGSEILFEVPEVTVAPVHICTSWESASGIVEFWVDGKPRVRKSLKKGYTVGAEASIILGQEQDSFGGNFEGSQSLVGDIGNVNMWDFVLSPDEINTIYLGGPFSPNVLNWRALKYEVQGEVFTKPQLWP
notes: human C-reactive protein, bought from Sigma; purity checked by SDS PAGE and mass spectrometry; source: bought: Sigma
- binding result: binds
